In the test the target is G6B-b dual phosphopeptide pY211/pY237 (Homo sapiens), O95866. The test is described as follows: SPR. A general note: In SPR one partner is held on a chip, and binding of the other changes the refractive index at the surface.
G6B-b dual phosphopeptide pY211/pY237 (Homo sapiens), O95866, sequence (O95866 206-241): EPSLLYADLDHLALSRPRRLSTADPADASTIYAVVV

B1: SHP-2 tandem SH2, Q06124 (protein)
chain: WFHPNITGVEAENLLLTRGVDGSFLARPSKSNPGDFTLSVRRNGAVTHIKIQNTGDYYDLYGGEKFATLAELVQYYMEHHGQLKEKNGDVIELKYPLNCADPTSERWFHGHLSGKEAEKLLTEKGKHGSFLVRESQSHPGDFVLSVRTGDDKGESNDGKSKVTHVMIRCQELKYDVGGGERFDSLTDLVEHYKKNPMVETLGTVLQLKQPL
As a reminder, the Kd is the concentration at which binding is half-saturated. Read a low Kd as higher affinity. B1: the dissociation constant Kd came to 0.48 nM.

(Values after article PMC3501490, “An Investigation of Hierachical Protein Recruitment to the Inhibitory Platelet Receptor, G6B-b” (PLoS ONE, 2012).)
